The text below walks through data of paper PMC5823869.

In the test the target is YAP2L/TAZ in cells. Briefly: non-reducing SDS-PAGE with immunoblot; cell lysates (15 µg of transfected HEK293; 30 µg of H460 for endogenous TAZ) in SDS sample buffer without DTT, 3 min at 60 °C; blot with anti-FLAG, anti-HA or anti-TAZ; series with increasing DTT run beside.

Regarding YAP2L/TAZ in cells, the percent of the total protein that is dimer is 20 to 30%.
